{
  "source": "the DeepSol protein solubility set",
  "data": [
    {"test": "soluble on expression in E. coli; label from the status in PepcDB or PDB records", "values": [
      {"sequence": "MYVTIVYASVKTDKTEAFKEATRMNHEQSIREPGNMRFDILQSADDPTRFVLYEAYKTRKDAAAHKETAHYLTWRDTVADWMAEPRKGVIYGGLYPTGDD", "soluble on expression in E. coli": "soluble"},
      {"sequence": "MYWLFKSEPFKWSWEMQKARGEKGEQWDGVRNYQARNNMRAMKLGDKGFFYHSNEGLEVVGIVEVCALAHPDSTTDDPRWECVDIKAVRDMPKPVTLKDVKANPRLQDMSLVTSMRLSVQPVTEDEWIEVCRMGGLDANDILEHHHHHH", "soluble on expression in E. coli": "soluble"},
      {"sequence": "MYYLELALGTQEMEAIVGKVTEVNKDTFWPIVKAAGDKPVVLDMFTQWCGPCKAMAPKYEKLAEEYLDVIFLKLDCNQENKTLAKELGIRVVPTFKILKENSVVGEVTGAKYDKLLEAIQAARS", "soluble on expression in E. coli": "soluble"},
      {"sequence": "NAKVKRIRLGNLKKTVKLYDLIDEFHSTTLENLKNGLRTGRGYCIEINKQVVSMAKSTSENRTHAMIIGVGTHPKYRAKGLATKCLIKLCSELLRENKIPCLFYDNEEAGKIYKKLGFENIGKWGIYSK", "soluble on expression in E. coli": "not soluble"},
      {"sequence": "NAQARFSQNLLDQGSHPTSEKLLSVLRPASGHVADALGITEGENVIHLRTLRRVNGVALCLIDHYFADLTLWPTLQRFDSGSLHDFLREQTGIALRRSQTRISARRAQAKECQRLEIPNMSPLLCVRTLNHRDGESSPAEYSVSLTRADMIEFTMEH", "soluble on expression in E. coli": "soluble"},
      {"sequence": "NATTLPEALKLMQYIGDAIGTIRDPQELFRTVTDKLRLLFAFDSAVIITIDRERREASVFFEMLRFELPEQLRHQTRSIAGTWLEGHLDDRTVTVASIARDIPSFGADGAPLLWTLHELGMRQIVLSPLRSGGRVIGFLSFVSAEEKLWSDGDKSLLSGVSSSIAIAVSNALAYEELRQREAETSMQLAINNALFTI", "soluble on expression in E. coli": "soluble"},
      {"sequence": "NDPEWFAIVKWTLFAMLNAEEAKITSKNVEAEAKATKNPDVARMLGADGTYGKDLNLPKDWVVQIVKQVGNYGEVFERNLGEGTPLKIKRGQNALWNAGGIQYAPPIR", "soluble on expression in E. coli": "not soluble"},
      {"sequence": "NEHLGGIYDYLRTRRMQTLTELERTTTIETKTTREAIPETEAKADYRRQKEVAKQLRTLERTVATCEERIGKLESELQAIEMLLQDPKHATDANLFERYAGMKQELEKAMEDWEQASEALSEAQG", "soluble on expression in E. coli": "not soluble"},
      {"sequence": "NEKITKKDALELFSLPIHAVGRIADEIRKVKCGDLVTFVNDTNINYTNICLSKCRFCAFYAREKGYVLSHEEILRKVGYAVKMGATQIMLQGGMNPDLGLEWFEELFRKIKARFSSVHIHSLSPPEIVFLAKLERSSIREVLDRLKAAGLDSLPGGGAEILVDSVRRKISPNKCSSDEWLRVMETAHSLNMPTTATMMFGHVESDGDIVEHLIKIRELQEKTGGFTAFIPWTFQPGNTELYAEIKRPVSPLRYLQVLAISRIVLNNFRNIQASWLTQGFEIATLSLFFGANDFGGTMLEENVVRATGKDFRPAKIEEIVKAVKAVGRPVALR", "soluble on expression in E. coli": "soluble"},
      {"sequence": "NEPVAVIGVGCRFPGDIDGPERLWDFLTEKKCAITAYPDRGFTNAGTFAESGGFLKDVAGFDNRFFDIPPDEALRMDPQQRLLLEVSWEALEHAGIIPESLRLSRTGVFVGVSSTDYVRLVSASAQQKSTIWDNTGGSSSIIANRISYFLDIQGPSIVIDTACSSSLVAVHLACRSLSTWDCDIALVGGTNVLISPEPWGGFREAGILSQTGCCHAFDKSADGMVRGEGCGVIVLQRLSDARLEGRRILAILTGSAVNQDGKSNGIMAPNPSAQIGVLENACKSARVDPLEIGYVEAHGTGTSLGDRIEAHALGMVFGRKRPGSGPLMIGSIKPNIGHLEGAAGIAGLIKAVLMVERGSLLPSGGFTEPNPAIPFTELGLRVVDELQEWPVVAGRPRRAGVSSFGFGGTNAHVIVEEA", "soluble on expression in E. coli": "soluble"},
      {"sequence": "NFMLNQPHSVSESPGKTVTISCTRSSGNIDSNYVQWYQQRPGSAPITVIYEDNQRPSGVPDRFAGSIDRSSNSASLTISGLKTEDEADYYCQSYDARNVVFGGGTRLTVLG", "soluble on expression in E. coli": "soluble"},
      {"sequence": "NGGVGVDVELITSINVENDTFIERNFTPQEIEYCSAQPSVQSSFAGTWSAKEAVFKSLGVKSLGGGAALKDIEIVRTNKNAPAVELHGNAKKAAEEAGVTDVKVSISHDDLQAVAVAVSTKK", "soluble on expression in E. coli": "soluble"},
      {"sequence": "NGMDEEQRQKRRRIEVALIEYRETLEEQGMKNPEEIERKVEINRKRLEVDYGLS", "soluble on expression in E. coli": "soluble"},
      {"sequence": "NKDMSFTVRGNYTFSQNIIDYYEENKLPYDYLSVTGKPFNILRGYIAEGLFSSKEEINTSADQSGFGRIRPGDIKYRDVNGDGIINDDDKVPLSYSNQLPRVMYGFGADFHWKDLTLSFLFKGSAKVDYYRSGLGNDAGWIPFYNGELGNVIKLANNPKNRWTPAWYSGTTATENPHAEFPRLSYGGNTNNSQLSSFWKRNGSFLRFQELSLKYNLKTPWIKKTGLSSVDLEFVANNLFTIDKVKYFDPEQASANGAAYPIPATYTFQVYLKF", "soluble on expression in E. coli": "not soluble"},
      {"sequence": "NKDWNVYASANFNYNRQEITKLFFGLNKYMLPNTGTIWEIGYPNSFYMAEYAGIDKKTGKQLWYVPGQVDADGNKVTTSQYSADLETRIDKSVTPPITGGFSLGASWKGLSLDADFAYIVGKWMINNDRYFTENGGGLMQLNKDKMLLNAWTEDNKETDVPKLGQSPQFDTHLLENASFLRLKNLKLTYVLPNSLFAGQNVIGGARVYLMARNLLTVTKYKGFDPEAGGNVGKNQYPNSKQYVAGIQLSF", "soluble on expression in E. coli": "not soluble"},
      {"sequence": "NPHLLVKYHSGFFVDGKFLCCQQSCKAAPGCTLWEAY", "soluble on expression in E. coli": "soluble"},
      {"sequence": "NQNQTQHKQRPQATAEQIRLAQMISDHNDADFEEKVKQLIDITGKNQDECVIALHDCNGDVNRAINVLLEGNPDTHSWEMVGKKKGVSGQK", "soluble on expression in E. coli": "soluble"},
      {"sequence": "NTATVITVGNYKGGAGKTTNVVLLAYKLAKKGLKVCVLDLDPQSNATKSLLLTKSSLYQDEVVTIEKTLMTGISEKNLDGLEVKIMDNLYLLPSYIDFEDFPKYLYKNTSNQREEDYYLKNIFTPLQGKYDIVLIDVPPMSKAVTRNAVICSDYVLISLQTHERSLSGAESYVEELNKLHNEYDLDLEVVGVLPVIHKNNGSVDQYVMEVAKETFGEDNLFENVVPQMERIKRFDVNGITDKDRHDQKVLNLYDKVSDELLDRINYFEEEKEGAIN", "soluble on expression in E. coli": "not soluble"},
      {"sequence": "NTIEKEERIKIAVLTEQNQKNRIADYQDREEIYERQRRKMHDYKNQLSTIQTLIKNGHTDEALSFTQKLTESIAVEMSAINTNHPVVNAILNQKYRSMQEKHIAVILKVGDLQEICLEEEEIVILLSNLLDNAIRESEKVLKNTGKAVIHLKLECEDHKLIFAVRNPVTEKVEIENDTIKSKRGDHHGIGLLNVKAVVDKYGGDMVLSCDENEFKAVVIL", "soluble on expression in E. coli": "not soluble"},
      {"sequence": "NTKQLRFEDVVNQSSPKNCTVYCGGIASGLTDQLMRQTFSPFGQIMEIRVFPEKGYSFVRFSTHESAAHAIVSVNGTTIEGHVVKCYWGKESPDMT", "soluble on expression in E. coli": "soluble"},
      {"sequence": "NTQLNIKMQPDTQTLDEVVVIGYGTVKKRDLTGAVASVKSEDIVRMPTSNVLEAIQGQVAGLDITRSSGEAGSGVNMTLRGTRSINGDNSPLFIIDGMEGSYDELNPNDIASIEVLKDASSTAVYGAAGANGVIIITTKTPKKDK", "soluble on expression in E. coli": "not soluble"},
      {"sequence": "NYNIYDHPKAAEDRKNTVLYLMHYHKRITDKQWEDAKKIDLKANLVNRTPEERQNIDTNQDSEYNSYVNFVKSELMNNKAFKDENLGNVLQSG", "soluble on expression in E. coli": "not soluble"},
      {"sequence": "PAGPFTRALWEASGDIIAGINSSDFITMLGDGTLRRPEFDFYIDQDAQYLAQYSRALARLSSIAPDSHAQIEWAQSAAECLVVEAELHRSYMAGKEVSAPSHITMAYTDFLIARTYTEDYVCGVAAVLPCYWLYAEIGLMLAEQNHDEHPYKDWLNTYSGEEFIAGTRAAIARLEKALENAGAEQRVDAARAFLSASVHEREFFDQATRHG", "soluble on expression in E. coli": "not soluble"},
      {"sequence": "PARPFRVSNHDRSSRRGVMASSLQELISKTLDALVIATGLVTLVLEEDGTVVDTEEFFQTLGDNTHFMILEKGQKWMP", "soluble on expression in E. coli": "soluble"},
      {"sequence": "PATCPIVPGQEMIIEISKGRSGLGLSIVGGKDTPLNAIVIHEVYEEGAAARDGRLWAGDQILEVNGVDLRNSSHEEAITALRQTPQKVRLVVYRDEAHYRDEE", "soluble on expression in E. coli": "soluble"},
      {"sequence": "PDAARKAQILWCQPDRAKAWTDWMRKGKFPVGGSICDNPVAETTSLGEQFGFNGTPTLVFPNGRSQSGYSPMPQLEEIIRKNQ", "soluble on expression in E. coli": "not soluble"},
      {"sequence": "PGWEIIHENGRPLYYNAEQKTKLHYPP", "soluble on expression in E. coli": "soluble"},
      {"sequence": "PMEQVVRIHASSGTTGKPTVVGYTQNDIDNWANIVARSLRAAGGSAKDKIHVAYGYGLFTGGLGAHYGAERLGATVIPMSGGQTEKQAQLIRDFQPDMIMVTPSYCLNLIEELERQMGGDARGCSLRVGVFGAEPWTLAMRAEIERRLGITALDIYGLSEVMGPGVAMECLETVDGPTI", "soluble on expression in E. coli": "not soluble"},
      {"sequence": "PNVVKMNKPFISLCPEITRAHALTLMDWLEDEHVTRHLSDSRHVSRFIEQVIDRVQLPVLTHLFNQGGRFFMAYDRHDVPVGFVRLVKTGSDCEIVLVIGNRDNWGRKLGASAIREGMKLAFFEMRAARLIAKVHPDNERSLNAFLRCGFVLESETP", "soluble on expression in E. coli": "not soluble"},
      {"sequence": "PPLYVPEQLVVHKETHQAHVMIGSRGYNAYDDKRTALYLLNNILGGPGMNSRLNVSLRERRGLVYTVESNLTSYTDTGAFCIYFGTDPEDVDTCLKLTYKELKRMRDVKMTSSQLMAAKKQLIGQIGVASDNNENNALGMAKTFLHYNKYESSESVFRRIEALTAEGLLEVANEMFAEEYLSTLIYR", "soluble on expression in E. coli": "not soluble"},
      {"sequence": "PRGSHMAEYLRLPHSLAMIRLCNPPVNAVSPTVIREVRNGLQKAGSDHTVKAIVICGANGNFCAGADIHGFSAFTPGLALGSLVDEIQRYQKPVLAAIQGVALGGGLELALGCHYRIANAKARVGLPEVTLGILPGARGTQLLPRVVGVPVALDLITSGKYLSADEALRLGILDAVVKSDPVEEAIKFAQKIIDKPIEPRRIFNKPVPSLPNMDSVFAEAIAKVRKQYPGVLAPETCVRSIQASVKHPYEVGIKEEEKLFMYLRASGQAKALQYAFFAEKSANKWSTPSGASWKTASAQPVSSVGVLGLGTMGRGIAISFARVGISVVAVESDPKQLDAAKKIITFTLEKEASRAHQNGQASAKPKLRFSSSTKELSTVDLVVEAVFEDMNLKKKVFAELSALCKPGAFLCTNTSALNVDDIASSTDRPQLVIGTHFFSPAHVMRLLEVIPSRYSSPTTIATVMSLSKKIGKIGVVVGNCYGFVGNRMLAPYYNQGFFLLEEGSKPEDVDGVLEEFGFKMGPFRVSDLAGLDVGWKIRKGQGLTGPSLPPGTPVRKRGNSRYSPLGDMLCEAGRFGQKTGKGWYQYDKPLGRIHKPDPWLSTFLSQYREVHHIEQRTISKEEILERCLYSLINEAFRILEEGMAARPEHIDVIYLHGYGWPRHKGGPMFYAASVGLPTVLEKLQKYYRQNPDIPQLEPSDYLRRLVAQGSPPLKEWQSLAGPHGSKL", "soluble on expression in E. coli": "soluble"},
      {"sequence": "PSLSDEISPQGDGSFLIEGSTNIRDINKGLKWDLPTDGPRTLNGLILEHLEDIPESHLSVRVAGHPMEIVEIEENRIKLVRVYPKK", "soluble on expression in E. coli": "not soluble"},
      {"sequence": "PSTAAWFNAREQAKLVDLYDSKIENATPLSAEQLLELAHRYNDRLTVGAALDPWANVPRGAGKEDGDGMAYKDQLRVDRTDVMARIRIPSIKVDLPIYHGTSDNTLKKGAGHLEGTSLPVGGPRTHSVITAHRGLAEATMFTNLNKVGVGDRFTIEVMGEVLTYEVRETRVVSPEDTRFLQTQDDRDLVTLVTCTPLGINTHRILVTAERITPTPQSDIDAARQASQIGFP", "soluble on expression in E. coli": "not soluble"}
    ]}
  ]
}
